In one assay the test system is LNCaP/Vector cells. The assay is described as follows: BrdU incorporation cell proliferation assay, LNCaP/Vector. The following applies: Dox 4 μg/ml, 24 hr. The format is cell-based. Here is the method: For in vitro kinase assay, the recombinant, pre-activated MST1 protein kinase was incubated with purified GST-AR DBD/HR fusion protein and 10 μCi ^32P-γ-ATP or 100 μM unlabeled-ATP. The reaction mixture was resolved on SDS-PAGE and autoradiographed. Cell-Death ELISA and BrdU incorporation assays were performed to assess cell death and cell proliferation, respectively, according to the manufacturer's instructions (Roche Molecular Diagnostics).
Background: Uptake of a labelled nucleoside into DNA is a usual measure of proliferation.

Assay [1] relates to C4-2/HA-MST1 tumor xenografts. The assay is described as follows: Subcutaneous prostate cancer xenograft in athymic nude mice. The format is in vivo. Here is the method: C4-2/Vector or C4-2/HA-MST1 cells mixed with Matrigel (1-to-1 ratio) were inoculated subcutaneously in athymic nude mice (CD-1 nu/nu; Charles River Laboratories, Wilmington, Mass.). 1×10^6 cells/100 μl were used per injection per site (right and left flanks). Mice were treated with Dox (0.5 mg/ml) in drinking water to induce MST1 expression for 12 weeks. Institutional Animal Care and Use Committee (IACUC) policies and guidelines were strictly applied. Tumor volumes were assessed by caliper according to procedures described previously (20). Mice were sacrificed and evaluated for tumor growth anatomically and tumor tissues extracted from mice were fixed in 10% formaldehyde for the construction of histological sections or “snap” frozen at −80° C. The expression of MST1 was verified in histological sections by immunohistochemistry using anti-HA antibody.

Where [2] appears, read: C4-2/HA-MST1 vs C4-2/Vector, Dox in drinking water, 12 weeks.

Take `C[C@H]1c2cccc(O)c2C(=O)C2=C(O)[C@]3(O)C(=O)C(C(N)=O)=C(O)[C@@H](N(C)C)[C@@H]3[C@@H](O)[C@@H]21` [Dox, doxycycline]: the “effect on cell growth” value in the assay with LNCaP/Vector cells is “no effect”.

B1: MST1: serine-threonine kinase MST1 (mammalian sterile STE20-like kinase 1), enforced Dox-inducible HA-tagged expression in tumor cells (protein, UniProt Q13043 1-487, looked up)
Serine/threonine-protein …: METVQLRNPPRRQLKKLDEDSLTKQPEEVFDVLEKLGEGSYGSVYKAIHKETGQIVAIKQVPVESDLQEIIKEISIMQQCDSPHVVKYYGSYFKNTDLWIVMEYCGAGSVSDIIRLRNKTLTEDEIATILQSTLKGLEYLHFMRKIHRDIKAGNILLNTEGHAKLADFGVAGQLTDTMAKRNTVIGTPFWMAPEVIQEIGYNCVADIWSLGITAIEMAEGKPPYADIHPMRAIFMIPTNPPPTFRKPELWSDNFTDFVKQCLVKSPEQRATATQLLQHPFVRSAKGVSILRDLINEAMDVKLKRQESQQREVDQDDEENSEEDEMDSGTMVRAVGDEMGTVRVASTMTDGANTMIEHDDTLPSQLGTMVINAEDEEEEGTMKRRDETMQPAKPSFLEYFEQKEKENQINSFGKSVPGPLKNSSDWKIPQDGDYEFLKSWTVEDLQKRLLALDPMMEQEIEEIRQKYQSKRQPILDAIEAKKRRQQNF
modifications: HA tag
notes: serine-threonine kinase MST1 (mammalian sterile STE20-like kinase 1), enforced Dox-inducible HA-tagged expression in tumor cells
For B1, the “mice that developed tumors” value in assay [1] (12 weeks after subcutaneous inoculation, 10 mice per group) was 2 out of 10. Besides, in assay [1] (setting [2]), the “suppression of tumor growth” value came to 35 fold and the “suppression of tumorigenic rates” value stood at 4 fold.

The record behind these values is US20130143948A1, “MST1 AS A PROGNOSTIC BIOMARKER AND THERAPEUTIC TARGET IN HUMAN CANCER” (CEDARS-SINAI MEDICAL CENTER, priority 2010, published 2013).
